9 molecules from publication PMC4551915, “Bacteriophage GIL01 gp7 interacts with host LexA repressor to enhance DNA binding and inhibit RecA-mediated auto-cleavage” (Nucleic Acids Research, 2015) can be followed below.

In data set [1] the target is T1, His6-gp7 (Bacillus phage GIL01) (UniProt Q7WSG2).
T1 sequence: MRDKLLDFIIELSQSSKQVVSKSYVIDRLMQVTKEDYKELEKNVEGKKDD
The data set is described as follows: EMSA. The following applies: EMSA/footprint: 80 mM NaCl, 25 mM Tris pH 7.5, 5 mM EDTA, 2 mM DTT, 0.1 mg/ml BSA, 0.05 ug/ul poly(dI-dC), room temp; SPR: 25 mM Tris-HCl pH 7.3, 140 mM NaCl …. (Mobility shift assays separate free from complexed probe on a gel.)

Data set [2] deals with T1, His6-gp7 (Bacillus phage GIL01). The data set is described as follows: DNase I footprinting. The following applies: EMSA/footprint: 80 mM NaCl, 25 mM Tris pH 7.5, 5 mM EDTA, 2 mM DTT, 0.1 mg/ml BSA, 0.05 ug/ul poly(dI-dC), room temp; SPR: 25 mM Tris-HCl pH 7.3, 140 mM NaCl ….
Data set [3] concerns the target T2, His6-LexA (Bacillus thuringiensis LexA repressor) (B. thuringiensis, UniProt A0RH75 1-206).
T2 construct: LexA, SOS transcription repressor of Bacillus thuringiensis; insert defined by nucleotide coordinates 3 624 082 through 3 624 714 in B. cereus strain G9842 (GenBank NC_011772), cloned BamHI-HindIII into pQE-30; also called His-tagged LexA; B. thuringiensis LexA repressor; source: E. coli M15 [pREP4], pQE-30, purified (Ni-NTA); not shown: His6, N-terminal, kept
T2 sequence (looked up): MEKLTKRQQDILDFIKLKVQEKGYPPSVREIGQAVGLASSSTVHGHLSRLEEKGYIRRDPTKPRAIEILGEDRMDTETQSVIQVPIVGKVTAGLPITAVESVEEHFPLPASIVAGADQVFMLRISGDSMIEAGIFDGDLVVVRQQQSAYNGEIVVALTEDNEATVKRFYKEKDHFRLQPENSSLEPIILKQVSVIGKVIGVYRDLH
The data set is described as follows: SPR; Biacore T100, CM5 chip, His-tagged LexA covalently coupled (EDC/NHS, ~2000 RU), no DNA; His-tagged gp7 (1.6-50 nM, 360 s) or gp1 as analyte; 25°C, 30 μl/min, SPR buffer (25 mM Tris-HCl pH 7.3, 140 mM NaCl, 5 mM EDTA, 2 mM DTT, 0.1 mg/ml BSA, 0.005% P20); apparent KD from plot of response against concentration, assuming one gp7 monomer per LexA monomer. The following applies: both partners purified. For orientation: In SPR one partner is held on a chip, and binding of the other changes the refractive index at the surface.

The target of data set [4] is T3, His6-gp7 (Bacillus phage GIL01, UniProt Q7WSG2 1-50).
T3 chain: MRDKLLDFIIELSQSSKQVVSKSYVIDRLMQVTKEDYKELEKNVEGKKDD
The data set is described as follows: SPR; 300 nM gp7; EMSA/footprint: 80 mM NaCl, 25 mM Tris pH 7.5, 5 mM EDTA, 2 mM DTT, 0.1 mg/ml BSA, 0.05 ug/ul poly(dI-dC), room temp; SPR: 25 mM Tris-HCl pH 7.3, 140 mM NaCl, 5 mM EDTA, 2 mM DTT, 0.1 mg/ml BSA, 0.005% P20, 25 C. The conditions noted are these: protein: recombinant; tags: N-terminal His6 (pQE-30); label: 3'-biotin on S1 anchor; 42 bp; 15 nt 5' overhang annealed to S1.

Where no end group is shown, it is not given here.

With “CCAAGGGTGCTATAATAGGAAATGAGTTAAAAAACGAACAAGCGTTTTATAAGTGTTCGGTTTTTGTAACATAACTGTAATATAAAAACATTTGCATTACTGGTAACTTTCGGGTAATATTGGTAGCAGAGAGGGACAAACGGGACAAATCGAGACACGATACATACTCTCTATACAAGTGAAAAGAAGGTGGTGCATAT (double strand) [P1 EMSA probe WT (-25 to +176)]”, the binding entry in data set [1] is on record as “no binding”.
As to “GTGTGACAAGATATTCCAAGGGTGCTATAATAGGAAATGAGTTAAAAAACGAACAAGCGTTTTATAAGTGTTCGGTTTTTGTAACATAACTGTAATATAAAAACATTTGCATTACTGGTAACTTTCGGGTAATATTGGTAGCAGAGAGGGACAAACGGGACAAATCGAGACACGATACATACTCTCTATACAAGTGAAAAGAAGGTGGTGCATAT (double strand) [P1 footprint probe WT (-39 to +176)]”, the binding entry in data set [2] is given as “no binding”.
As for His6-MRDKLLDFIIELSQSSKQVVSKSYVIDRLMQVTKEDYKELEKNVEGKKDD (natural protein) [His6-gp7 (bacteriophage GIL01 gp7, product of ORF7)], in data set [3], the Kd was found to be 17.7 nM.

B1: SPR Wt (dinBox1+dinBox1b) (dsDNA)
DNA 1: GTTACTACTCGAGCGTTAAAAAACGAACAAGCGTTTTATAAGTGTTCGGTTTTTGTA
DNA 2: TACAAAAACCGAACACTTATAAAACGCTTGTTCGTTTTTTAA
DNA 3: CGCTCGAGTAGTAAC
Turning to B1, in data set [4], the binding result is recorded as “no binding”.

B2: SPR B11 (dinBox1 single mutant) (dsDNA)
DNA 1: GTTACTACTCGAGCGTTAAAAAACGAACAAGCTTTTTATAAGTGTTCGGTTTTTGTA
DNA 2: TACAAAAACCGAACACTTATAAAAAGCTTGTTCGTTTTTTAA
DNA 3: CGCTCGAGTAGTAAC
Take B2: in data set [4], the binding result is listed as “no binding”.

B3: SPR Ns (non-specific; both boxes mutated) (dsDNA)
DNA 1: GTTACTACTCGAGCGTTAAAAAACTAACAAGCTTTTTATAAGTATTCAGTTTTTGTA
DNA 2: TACAAAAACTGAATACTTATAAAAAGCTTGTTAGTTTTTTAA
DNA 3: CGCTCGAGTAGTAAC
In the case of B3, the binding result in data set [4] was “no binding”.

B4: SPR B22 (dinBox1b double mutant) (dsDNA)
DNA 1: GTTACTACTCGAGCGTTAAAAAACGAACAAGCGTTTTATAAGTATTCAGTTTTTGTA
DNA 2: TACAAAAACTGAATACTTATAAAACGCTTGTTCGTTTTTTAA
DNA 3: CGCTCGAGTAGTAAC
Take B4: the binding result in data set [4] is given as “no binding”.

B5: SPR B12 (dinBox1 double mutant) (dsDNA)
DNA 1: GTTACTACTCGAGCGTTAAAAAACTAACAAGCTTTTTATAAGTGTTCGGTTTTTGTA
DNA 2: TACAAAAACCGAACACTTATAAAAAGCTTGTTAGTTTTTTAA
DNA 3: CGCTCGAGTAGTAAC
B5: the binding result in data set [4] was “no binding”.

B6: SPR B21 (dinBox1b single mutant) (dsDNA)
DNA 1: GTTACTACTCGAGCGTTAAAAAACGAACAAGCGTTTTATAAGTGTTCAGTTTTTGTA
DNA 2: TACAAAAACTGAACACTTATAAAACGCTTGTTCGTTTTTTAA
DNA 3: CGCTCGAGTAGTAAC
As for B6, the binding result in data set [4] is given as “no binding”.
